Laboratory results as given in paper PMC8299219 (Cell, 2021).

B1: C81H5 (antibody, V domains shown)
VH: QVQLVQSGAEVRKPGASVKVSCKVSEYTLTELSIHWVRQAPGKGLEWMGGFDPEDGETIYAQKFQGRVTMTEDTSTDTAYMELSSLRSEDTAVYYCATAPAYCPGGVCPRGWFDPWGQGTLVTVSS
VL: QSALTQPRSVSGSPGQSVTISCTGTSSDVGGYNYVSWYQQHPGKAPKLMIYDVSKRPSGVPDRFSGSKSGNTASLTISGLQAEDEADYYCCSYAGSYTYVFGTGTKVTVL
B2: C882C12 (antibody, V domains shown)
VH: QVQLVQSGAEVKKPGASVKVSCKASGYTFTGYYMHWVRQAPGQGLEWMGWINPNSDVTNYAQKFQGWVTMTRDTSISTAYMELSRLRSDDTAVYYCAREIPSSGYYSGGLDYWGQGTLVTVSS
VL: QSALTQPRSVSGSPGQSVTISCTGTSSDVGGYNYVSWYQQYPGKAPKLMIYDVSKRPSGVPDRFSGSKSGNTASLTISGLQAEDEADYYCCSYAGTYTGVFGGGTKLTVL
B3: G32M5 (antibody, V domains shown)
VH: EVQLLESGGGLVQPGGSLRLSCAASGFTFSSYAMSWVRQAPGKGLEWVSGISASGGSTYYADSVKGRFTISRDNSKNTLYLQMNSLRAEDTAVYYCAKDGGPYSKGPYHYYGMDVWGQGTTVTVSS
VL: QSVLTQPPSVSAAPGQKVTISCSGSSSNIGNNYVSWYQQLPGTAPKLLIYDNNKRPSGIPDRFSGSKSGTSATLGITGLQTGDEADYYCGTWDSSLSAYVFGTGTKVTVL
B4: G32A12 (antibody, V domains shown)
VH: QVQLVQSGAEVKKPGASVKVSCKASGYTFTSYYMHWVRQAPGQGLEWMGIINPSGGSTSYAQKFQGRVTMTRDTSTSTVYMELSSLRSEDTAVYYCARDPTMTTVTTLDDYYYYYGMDVWGQGTTVTVSS
VL: not shown
B5: C83B8 (antibody, V domains shown)
VH: QVQLVQSGAEVKKPGSSVKVSCKASGGTFSSYAISWVRQAPGQGLEWMGGIIPIFGTANYAQKFQGRVTITADESTSTAYMELSSLKSEDTAVYYCASTSYYDSSGYYLDYWGQGTLVTVSS
VL: EIVLTQSPATLSLSPGERATLSCRASQSVSSFLAWYQQKPGQAPRLLIYDASNRATGIPARFSGSGSGTDFTLTISSLEPEDFAVYYCQQRSNWPPKITFGQGTRLEIK
B6: C83A10 (antibody, V domains shown)
VH: QVQLVQSGAEVKKPGSSVKVSCKASGGTFSSYAISWVRQAPGQGLEWMGGIIPIFGTAKYAQKFQGRVTITADESTSTAYLELSSLRSEDTAVYYCARVGPYDSSGYYYDYWGQGTLVTVSS
VL: EIVLTQSPATLSLSPGERATLSCRASQSVSSYLAWYQQKPGQAPRLLIYDASNRATGIPARFSGSGSGTDFTLTISSLEPEDFAVYYCQQRSNWPPMYTFGQGTKLEIK
B7: C102A1 (antibody, V domains shown)
VH: QVQLVQSGAEVKKPGSSVKVSCEASGGTFSSYAISWVRQAPGQGLEWMGGIIPIFGTANYAQKFQGRLTITADESTSTAFMELSSLRSEDTAVYYCARTYYYDSSGYSHDYWGQGTLVTVSS
VL: EIVLTQSPATLSLSPGERATLSCRASQSLSSFLAWYQQKPGQAPRLLIYDASNRATGIPARFSGSGSGTDFTLTISSLEPEDFAVYYCQQRTNWPPRITFGQGTRLEIK
B8: C83B5 (antibody, V domains shown)
VH: EVQLVQSGAEVKKPGESLRISCKGSGYSFTSYWISWVRQMPGKGLEWMGRIDPSDSYTNYSPSFQGHVTISADKSISTAYLQWSSLKASDTAMYYCARQNYYDSSGHPDAFDIWGQGTMVTVSS
VL: not shown
B9: C81G1 (antibody, V domains shown)
VH: QVQLVQSGAEVKKPGSSVKVSCKASGGTFSSYGITWVRQAPGQGLEWMGGIIPIFGTANYAQKFQGRVTITADESTSTAYMDLSSLRSEDTAVYYCAILGDDYNDVDYWGQGTLVTVSS
VL: not shown
B10: C12D8 (antibody, V domains shown)
VH: EVQLVESGGGLVQPGGSLRLSCAASGFTFSSYWMSWVRQAPGKGLEWVANIKQDGSEKYYVDSVKGRFTISRDNAKNSLYLQMNSLRAEDTAVYYCARDDGLREPFDYWGQGTLVTVSS
VL: not shown
B11: C41C3 (antibody, V domains shown)
VH: QVQLQESGPGLVKPSETLSLTCTVSGGSISSYYWSWIRQPPGKGLEWIGYIYYSGSTNYNPSLKSRVTISVDTSKNQFSLKLSSVTAADTAVYYCARAAEYYDFWSGYYRNWFDPWGQGTLVTVSS
VL: not shown
B12: C12A8 (antibody, V domains shown)
VH: QVQLVQSGAEVKKPGASVKVSCKVSGYTLTELSMHWVRQAPGKGLEWMGGFDPEDGETIYAQKFQGRVTMTEDTSTDTAYMELSSLRSEDTAVYYCATVSWPNYYDGTLYYFDYWGQGTLVTVSS
VL: DIQMTQSPSSLSASVGDRVTITCRASQGIRNDLGWYQQKPGKAPKRLIYAASSLQSGVPSRFRGSGSGTEFTLTISSLQPEDFATYYCLQHYSYPFTFGPGTKVDIK
B13: C63D4 (antibody, V domains shown)
VH: EVQLVESGGGLVQPGGSLRLSCAASGFTFSTYEMNWVRQAPGKGLEWVSYISSSGSTISYADSVKGRFTISRDNAKNSLYLQMNSLRAEDTAVYYCARDSPHYDYIWGSYRLRGAFDIWGQGTMVTVSS
VL: QSALTQPPSASGSPGQSVTISCTGTSSDVGGYNYVSWYQQHPGKAPKLMIYEVSKRPSGVPDRFSGSKSGNTASLTVSGLQAEDEADYYCSSYTGSNTLYVFGTGTKVTVL
B14: C83A8 (antibody, V domains shown)
VH: QVQLVQSGAEVKKPGSSVKISCKASGGTFSSNAISWVRQAPGQGLEWMGGIIPILTTTNYAERLQGRVTITADESTSTAYMELSSLRSEDTAVYYCASQGRKSCITVFGVVDLLCYSNGMDVWGQGTTVTVSS
VL: QSALTQPASVSGSPGQSITISCTGTSSDVGGYKYVSWYQHHPGKAPKLMIYDVSNRPSGVSNRFSGSKSGNTASLTISGLQAEDEAEYYCSSFTTSSTLVVFGGGTKLTVL
B15: G32L6 (antibody, V domains shown)
VH: QVQLVQSGAEVKKPGASVKVSCKVSGYTLTELSMHWVRQAPGKGLEWMGGFDPEDGETIYAQKFQGRVTMTEDTSTDTAYMELSTLRSEDTAVYYCATAPAVAGTFENYYYYYGLDVWGQGTTVTVSS
VL: not shown
B16: C18D5 (antibody, V domains shown)
VH: QVQLVQSGAEVKTPGASVKVSCKASGFTFTNYDLNWVRQAPGQGLEWMGWMNPKSGDTRSAQRFQGRVTMTRDTSISTAYMEMNTLRSEDTAVYYCARGRGDYSDDDFPALYLWGQGTLVTVSS
VL: not shown
B17: C81H7 (antibody, V domains shown)
VH: QVQLVESGGGVVQPGRSLRLSCAASGFTFSSYGMHWVRQAPGKGLEWVAVIWYDGSNKYYAESVKGRFTISRDNSKNTLYLQMNSLRAEDTAVYYCARPPSVVRHDAFDIWGQGTMVTVSS
VL: SYELTQPPSVSVSPGQTARITCSGDALPKKYAYWYQQKSGQAPVLVIYEDSKRPSGIPERFSGSSSGTMATLTISGAQVEDEADYYCYSTDSSGNHGVFGGGTKLTVL
B18: C81D7 (antibody, V domains shown)
VH: not shown
VL: SYELTQPPSVSVAPGKTARITCGGNNIGSKSVHWYQQKPGQAPVLVVYDDSDRPSGIPERFSGSNSGNTATLTISRVEAGDEADYYCQVWDSSSDSWVFGGGTKLTVL
B19: C81E4 (antibody, V domains shown)
VH: QVQLVESGGGVVQPGRSLRLSCEASGFTFSNYAMHWVRQAPGKGLEWVAVISYDGSNKYYADSVKGRFTISRDNSKNTLYLQMNSLRAEDTAVYYCASCGITMVQGAHPDAFDIWGQGTMVTVSS
VL: SYELTQPPSVSVAPGKTARITCGGNNIGTKSVHWYQQKPGQAPVLVVYDDSDRPSGIPERFSGSNSGNTATLTISRVEAGDEADYYCQVWDRSSDHVLFGGGTKLTVL
B20: C81B2 (antibody, V domains shown)
VH: QVQLVQSGAEVKKPGASVKVSCKVSGYTLIELSMHWVRQAPGKGLEWMGGFDPEDGETIYAQKFQGRVTMTEDTSTDTAYMELSSLRSEDTAVYYCATGPSIAVRGWFDPWGQGTLVTVSS
VL: QSVLTQPPSVSAAPGQKVTISCSGSSSNIGNNYVSWYQQLPGTAPKLLIYENNKRPSGIPDRFSGSKSGTSATLGITGLQTGDEADYYCGTWDSSLSAGGVFGGGTKLTVL
B21: C81G10 (antibody, V domains shown)
VH: QVQLVQSGAEVKKPGASVKVSCKVSGYTLTELSIHWVRQAPGKGLEWMGGFDPEDGETIYAQKFQGRVTMTEDTSTDTAYMELSSLRSEDTAVYYCATTTVLAAASWFDPWGQGTLVTVSS
VL: QSALTQPASVSGSPGQSITISCTGTNSDVGSYNLVSWYQQHPGKAPKLMIYEGSKRPSGVSNRFSGSKSGNTASLTISGLQAEDEADYYCCSYAGSGTVVFGGGTKLTVL
B22: C81C6 (antibody, V domains shown)
VH: QVQLVQSGAEVKKPGASVKVSCKVSGYTLTELSMHWVRQAPGKGLEWMGGFDPEDGETIYAQKFQGRVTVTEDTSTDTAYMELSSLRSEDTAVYYCATSPAIAATGWLDPWGQGTLVTVSS
VL: QSALTQPASVSGSPGQSITISCTGTSSDVGSYNLVSWYQQHPGKAPKLMIYEGNKRPSGVSNRFSGSKSGNTASLTISGLQAEDEADYYCCSYAGSSTHWVFGGGTKLTVL
B23: C30A11 (antibody, V domains shown)
VH: QVQLVQSGAEVKKPGASVKVSCKASGYTFTGYYIHWVRQAPGQGLEWMGWINPNSGVTNYAQKFQGWVTMTRDTSISTAYMELSRLKSDDTAVYYCAREMQQLEGYYYYAMDVWGQGTTVTVSS
VL: not shown
B24: C81H2 (antibody, V domains shown)
VH: QVQLVQSGSELKKPGASVKVSCKASGYTFTSYAMNWVRQAPGQGLEWMGWINTNTGNPTYAQDFTGRFVFSLDTSVSTAYLQISSLKAEDTAMYYCARGSMITFGGILEPVLQFDYWGQGTLVTVSS
VL: not shown
B25: C81E3 (antibody, V domains shown)
VH: QVQLVESGGGVVQPGRSLRLSCAASGFTFSSYAMHWVRQAPGKGLEWVAVISYDGSNKYYADSVKGRFTISRDNSKNTLYLQMNSLRAEDTAVYYCARVSSMDVLRYFDPLDVWGNGTTVTVSS
VL: SYELTQPPSVSVSPGQTARITCSGDALPKQYAYWYQQKPGQAPVLVIYKDSERPSGIPERFSGSSSGTTVTLTISGVQAEDEADYYCQSADSSGTYHVVFGGGTKLTVL

Target: SARS-CoV-2 S ectodomain trimer, prefusion-stabilized, 2P variant (Wrapp et al., 2020) (SARS-CoV-2, Wuhan-Hu-1, UniProt P0DTC2, stabilised)

Q: Does B1 bind?
A: binds

Q: Does B2 bind?
A: binds

Q: Does B3 bind?
A: binds

Q: Does B4 bind?
A: binds

Q: Does B5 bind?
A: binds

Q: Does B6 bind?
A: binds

Q: Does B7 bind?
A: binds

Q: Does B8 bind?
A: binds

Q: Does B9 bind?
A: binds

Q: Does B10 bind?
A: binds

Q: Does B11 bind?
A: binds

Q: Does B12 bind?
A: binds

Q: Does B13 bind?
A: binds

Q: Does B14 bind?
A: binds

Q: Does B15 bind?
A: binds

Q: Does B16 bind?
A: binds

Q: Does B17 bind?
A: binds

Q: Does B18 bind?
A: binds

Q: Does B19 bind?
A: binds

Q: Does B20 bind?
A: binds

Q: Does B21 bind?
A: binds

Q: Does B22 bind?
A: binds

Q: Does B23 bind?
A: binds

Q: Does B24 bind?
A: binds

Q: Does B25 bind?
A: binds
